Measured values from patent US10669350B2, “Antigen-binding constructs that bind to and inhibit catalase and/or superoxide dismutase as well as pharmaceutical compositions containing them for tumor therapy” (priority 2015, dated 2020).
“Also recorded” adds a separate entry of the source.

Legend:
[1] = tested on: human neuroblastoma line SHEP; assay: Standard preparation for apoptosis induction in SHEP cells (percentage of apoptotic cells); assay type: cell-based
Description: (§1) The experiments shown in FIG. 13-24 were carried out with a standard preparation for the apoptosis induction that is based on the method performed in Heinzelmann and Bauer 2010. The tumor cells used were taken from an optimally growing semi-sealed culture, centrifuged and placed in fresh medium. The test was performed in 96-well cell culture plates with 12 500 MKN-45 cells/100 μl medium or 10 000 SHEP cells/100 μl medium. MKN-45 cells grow in suspension, SHEP cells are adherent. The tests with SHEP cells were started as soon as the cells had grown on. By adding increasing concentrations of single domain VHH fragments that either inhibit catalase or SOD the protection of the tumor cells from their own ROS signaling was annulled so that based on the cell-owned extracellular superoxide anion production the NO/peroxynitrite signal path and the HOCl path (with MKN-45 cells) or in case of the SHEP cells only the NO/peroxynitrite path could start when the cells were incubated at 37° C. The analysis of the signal paths was carried out by the application of inhibitors of the NADPH oxidase (AEBSF), the HOCl scavenger taurine, the peroxynitrite scavenger FeTPPS and the singlet oxygen scavenger histidine. In some experiments for comparison instead of the single domain VHH fragments either recombinant Fab fragments or monoclonal antibodies were applied. This is indicated in the respective illustrations.
(§2) Double preparations were examined at the times shown in the text by means of phase contrast reverse microscopy for the percentage of apoptotic cells. Here, the classical apoptosis criteria described and documented in Heinzelmann and Bauer 2010 such as condensation of the nucleus, fragmentation of the nucleus, and membrane blebbing were used. Per single preparation at least 250 randomly selected cells were examined for the presence of apoptosis features.
10 000 cells of the human neuroblastoma line SHEP per 100 μl medium were mixed with the given concentrations of the catalase-neutralizing single domain VHH fragment aCATcb0972, the SOD-neutralizing single domain VHH fragment aSOD0989, the SOD-binding but not neutralizing single domain VHH fragment aSODcb991 and the hybrid molecule aCATaSOD and incubated for 5 hours at 37° C., 5% CO2, before percentages of apoptotic cells were determined.
10 000 cells of the human neuroblastoma line SHEP per 100 μl medium were mixed with the given concentrations of the SOD-neutralizing single domain VHH fragment aSOD0989. Parallel preparations received 20 μM or 100 μM of the NO donor sodium nitroprusside or were incubated without a further additive. After 5 hours at 37° C., 5% CO2 the percentages of apoptotic cells were determined.

[2] = biological target: T1, human SOD1 (Homo sapiens, UniProt P00441); assay: ELISA selection of clones binding to human SOD1
Excerpt: The preparation was by immunizing alpacas with human SOD1 (SOD1=Cu/ZnSOD [EC 1.15.1.1] purified from human erythrocytes, obtained from Sigma (Schnelldorf), catalogue number S 9636) under supervision of a veterinary, obtaining RNA from the B cells of the animals, reverse transcription, cloning in E. coli and isolation via the phage display technology. […] In a second run, by employing the cell culture system described by Heinzelmann and Bauer (Multiple protective functions of catalase against intercellular apoptosis-inducing ROS signaling of human tumor cells, Biol. Chem. 391, 675-693, 2010) it was checked which of the single domain VHH fragments binding to SOD actually results in an inhibition of SOD, what is expressed in the tumor system used as ROS-dependent apoptosis induction in the cells, since by the inhibition of SOD the concentration of free superoxide anions dramatically increases due to the absence of the enzymatic dismutation and results in a parallel indirect inhibition of catalase. In the following, this is expressed as ROS-dependent apoptosis induction. In a further control trial the specific inhibition of SOD by recombinant single domain VHH fragments was verified by the fact that the increasing effect of these fragments on apoptosis induction by exogenously added HOCl was examined, as described in Bauer 2013 (HOCl-dependent singlet oxygen and hydroxyl radical generation modulate and induce apoptosis of malignant cells. Anticancer Res 33: 3589-3602, 2013).

[3] = biological target: T1, human SOD1; assay: Check for inhibition (neutralization) of SOD, ROS-dependent apoptosis induction and HOCl control trial; assay type: cell-based; set-up: endogenous in cells; host or cells: MKN-45 human gastric carcinoma cells
Excerpt: Thus, the inhibition of the SOD mediated by single domain VHH or Fab fragments (comparison) can be determined by the fact that the apoptosis induction of tumor cells by exogenously added HOCl is employed as the test system. HOCl in a concentration depending manner induces apoptosis that is based on the interaction between HOCl and superoxide anions that results in the formation of aggressive hydroxyl radicals (Bauer G. HOCl-dependent singlet oxygen and hydroxyl radical generation modulate and induce apoptosis of malignant cells. Anticancer Res 33: 3589-3602, 2013). […] That is, the neutralizing effect of single domain VHH or Fab fragments can be determined by checking whether the inhibition of the apoptosis is abolished again by the single domain VHH or Fab fragments to be tested. The quantitative employment of said test system requires linking several simple steps the skilled person is familiar with. In the first step the concentration of commercially available HOCl (or sodium hypochlorite that sufficiently forms HOCl in medium) is determined that generates a significant quantifiable apoptosis signal within a reasonable trial time (1-2 hours). […] As soon as the first two steps have been satisfactorily performed there can take place the actual test of the inhibiting effect of the single domain VHH or Fab fragments. For that, selected concentrations of the fragments to be tested are pre-incubated for 20 minutes with the optimal concentration of SOD determined in advance in step #2. Subsequently, said mixture is added to the test cells. Thereafter, HOCl is added and the apoptosis induction is determined. […]
The preparation was by immunizing alpacas with human SOD1 (SOD1=Cu/ZnSOD [EC 1.15.1.1] purified from human erythrocytes, obtained from Sigma (Schnelldorf), catalogue number S 9636) under supervision of a veterinary, obtaining RNA from the B cells of the animals, reverse transcription, cloning in E. coli and isolation via the phage display technology. […] In the following, this is expressed as ROS-dependent apoptosis induction. […]

[4] = tested on: MKN-45 gastric carcinoma cells; assay: Standard preparation for autocrine ROS-controlled apoptosis induction in tumor cells (percentage of apoptotic cells); assay type: cell-based, human
Description: as §1
as §2, with “features. […]” for “features.”

[5] = tested on: human colon carcinoma xenotransplant; assay: Growth of human colon carcinoma xenotransplant on immunocompromised mice; assay type: in vivo
Description: The experiments carried out in FIGS. 28A and 28B and FIG. 29 were carried out by a commercial certified supplier (Oncotest GmbH, Freiburg). Here, xenotransplants of a human colon carcinoma were implanted in suitable mice. After the tumors had grown on and a certain minimum size had been achieved, the therapeutic test was started. aSODcb0989 in the indicated doses (mg/kg body weight) or buffer were intravenously applied twice a week. Also, the tumor sizes were measured twice a week by means of a caliber.

T1 sequence (P00441 2-154 limits assumed): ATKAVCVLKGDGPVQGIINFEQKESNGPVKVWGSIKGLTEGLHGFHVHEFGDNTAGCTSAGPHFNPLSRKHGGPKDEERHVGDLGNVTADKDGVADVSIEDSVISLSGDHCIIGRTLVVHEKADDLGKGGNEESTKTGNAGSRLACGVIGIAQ

binding to human SOD1 [2] | neutralization (inhibition) of human SOD1 [3] | Molecule | concentration required for apoptosis-inducing effect relative to the neutralizing single domain VHH fragment ([1]; 5 hours) | apoptosis induction in SHEP cells ([1]; 5 hours at 37° C., 5% CO2) | apoptosis induction in the presence of peroxynitrite scavenger FeTPPS ([4]; 25 μM FeTPPS) | apoptosis induction in the presence of HOCl scavenger taurine ([4]; 50 mM taurine) | apoptosis induction in combination with 0.005 pg/ml of the complementary single domain VHH fragment ([4]; 3.5 hours, FIG. 18) | optimum conc. ([4]; Table 1, concentration necessary for optimum apoptosis induction, taken from FIGS. 13A, 13B, 15A, 15B, 20) | optimum conc. ([4]; Table 2, FIG. 20 experiment, 3.5 hours) | ROS signaling path induced ([4]; inhibitor analysis) | tumor growth versus control group ([5]; 0.03 mg/kg intravenously twice a week) | tumor growth versus control group ([5]; 0.3 mg/kg intravenously twice a week) | tumor growth versus control group ([5]; 0.9 mg/kg intravenously twice a week)
bind to human SOD1 | do not neutralize it | aSODcb0991: single domain VHH fragment binding to human SOD1, but not neutralizing; SEQ ID NO: 16 (protein, SOD binding) VHH: MAQVQLVESGGGIVQPGGSLRLSCVASESISDIDAMYWHRQAPGKRRELVAGITNDGTEYFADSVKGRFAISRDNTKSSLYLQMNSLKLEDTAMYYCATLPNPPPGYWGQGTQVTVSSKKKHHHHHH | 10^6 fold | at high concentrations also achieves an apoptosis-inducing effect; also recorded: weak but significant apoptosis induction |  |  |  |  |  |  |  |  | 
binds to | neutralizes human SOD1 | aSODcb0989: single domain VHH fragment that binds to and neutralizes human SOD1; SEQ ID NO: 15 (protein, SOD binding) VHH: MAQVQLVESGGGLVQSGGSLTLSCTASGFTISNYPMTWVRQAPGKGLEWVSRINSGGDRTLYADSVKGRFTVSRDNARNTMYLQMNNLKPEDTGLYFCADSGAGWRYWGQGTQVTVSSKKKHHHHHH |  |  | complete inhibition by means of FeTPPS | disappearance of an inhibition by taurine | noteworthy synergistic effect | 1.2 pg/mL | 0.35 pg/mL | exclusively via the NO/peroxynitrite path | there does not result a recognizable difference to the controls | very clearly differs from the control group | in some animals the growth inhibition is enhanced, whereas in other animals there is caused the contrary
